“And” between values parts separate entries of the source, which are not always exact repeats. Equal values may be shown once.
What was measured:
[1] = target: HA-Cdt1 phosphomimetic (2E3D) (human) (UniProt Q9H211); experiment: co-IP
GFP-Cdt1^2E3D (human) = GFP-Cdt1^2E3D (human) (UniProt Q9H211); experiment: BLI
[2] = target: GFP-tagged Cdt1 (92-546 a. a.) (human) (UniProt Q9H211); experiment: BLI
[3] = target: GFP-tagged Cdt1 deletion fragment 410-546 (human) (UniProt Q9H211); experiment: BLI
[4] = target: GFP-tagged Cdt1 deletion fragment 92-410 (human) (UniProt Q9H211); experiment: BLI

| Substance | % reduction of co-precipitated Ska1 against Cdt1-WT [1] | Kd (GFP-Cdt1^2E3D (human)) | Kd [2] | Kd [3] | Kd [4] |
| --- | --- | --- | --- | --- | --- |
| SKA1 (endogenous) (from UniProt Q96BD8 1-255) (natural protein) | 50% and 55% |  |  |  |  |
| Ska1 complex (analyte of the BLI experiments) (from UniProt Q96BD8;Q8WVK7) |  | 185 nM | 70 nM | 360 nM | 220 nM |

— publication doi:10.1101/2022.05.05.490787
